Reference: the Immune Epitope Database (IEDB)

What was measured:
HLA-A*68:02 = experiment: IEDB peptide-MHC binding, purified MHC/direct/fluorescence; filed as Kd, often an IC50 or EC50 that approximates it; ≥ and ≤ were set here for values at or beyond the usual limits of such assays
HLA-A*02:19 = experiment: as above
HLA-A*29:02 = experiment: as above
HLA-A*02:11 = experiment: as above
HLA-A*24:03 = experiment: as above
HLA-A*03:01 [1] = experiment: as above
HLA-B*40:01 = experiment: as above
HLA-A*02:03 = experiment: as above
HLA-A*02:12 = experiment: as above
HLA-A*02:16 = experiment: as above
HLA-B*15:17 = experiment: IEDB peptide-MHC binding, purified MHC/competitive/fluorescence; filed as Kd, often an IC50 or EC50 that approximates it; ≥ and ≤ were set here for values at or beyond the usual limits of such assays
HLA-B*46:01 = experiment: as above
HLA-A*26:01 [2] = experiment: as above
HLA-B*27:03 = experiment: as above
HLA-B*39:01 = experiment: as above
HLA-B*18:01 = experiment: as above
HLA-B*15:01 [3] = experiment: as above
HLA-A*69:01 [4] = experiment: as above
HLA-B*57:01 = experiment: as above
HLA-A*02:01 [5] = experiment: as above
HLA-B*51:01 = experiment: as above
HLA-A*23:01 = experiment: IEDB peptide-MHC binding, purified MHC/direct/fluorescence; filed as Kd, often an IC50 or EC50 that approximates it; ≥ and ≤ were set here for values at or beyond the usual limits of such assays
HLA-B*27:05 = experiment: as above
HLA-A*11:01 [6] = experiment: IEDB peptide-MHC binding, purified MHC/competitive/fluorescence; ≥ and ≤ were set here for values at or beyond the usual limits of such assays; settings: source organism: Sudan ebolavirus
HLA-A*03:01 [7] = experiment: as above; settings: source organism: Sudan ebolavirus
HLA-A*31:01 [8] = experiment: IEDB peptide-MHC binding, purified MHC/competitive/fluorescence; filed as Kd, often an IC50 or EC50 that approximates it; ≥ and ≤ were set here for values at or beyond the usual limits of such assays; settings: source organism: Zaire ebolavirus
HLA-B*07:02 = experiment: IEDB peptide-MHC binding, purified MHC/direct/fluorescence; filed as Kd, often an IC50 or EC50 that approximates it; ≥ and ≤ were set here for values at or beyond the usual limits of such assays
HLA-A*30:01 = experiment: as above; settings: source organism: Brucella melitensis
HLA-A*11:01 [9] = experiment: as above; settings: source organism: Brucella melitensis
HLA-A*01:01 = experiment: as above; settings: source organism: Brucella melitensis
HLA-B*44:02 = experiment: as above; settings: source organism: Brucella melitensis
HLA-A*26:01 [10] = experiment: as above; settings: source organism: Brucella melitensis
HLA-B*15:01 [11] = experiment: as above; settings: source organism: Brucella melitensis
HLA-A*69:01 [12] = experiment: as above; settings: source organism: Brucella melitensis
HLA-B*58:01 = experiment: as above
HLA-A*02:01 [13] = experiment: as above; settings: source organism: Brucella melitensis
HLA-B*08:01 = experiment: as above; settings: source organism: Brucella melitensis
HLA-A*31:01 [14] = experiment: as above; settings: source organism: Brucella melitensis
[15] = source organism: Zaire ebolavirus
[16] = source organism: Orthohantavirus hantanense
[17] = source organism: Seoul virus 80-39
[18] = source organism: Limestone Canyon virus
[19] = source organism: Orthohantavirus andesense
[20] = source organism: Orthohantavirus sinnombreense
[21] = source organism: Brucella melitensis

AENCYNLEI
Kd (HLA-A*68:02; [15]): ≥ 20 µM
Kd (HLA-A*02:19; [15]): ≥ 20 µM
Kd (HLA-A*29:02; [15]): ≥ 20 µM
Kd (HLA-A*02:11; [15]): ≥ 20 µM
Kd (HLA-A*24:03; [15]): ≥ 20 µM
Kd (HLA-A*03:01 [1]; [15]): ≥ 20 µM
Kd (HLA-B*40:01; [15]): 0.0822 µM
Kd (HLA-A*02:03; [15]): ≥ 20 µM
Kd (HLA-A*02:12; [15]): ≥ 20 µM
Kd (HLA-A*02:16; [15]): ≥ 20 µM
Kd (HLA-B*15:17; [15]): ≥ 20 µM
Kd (HLA-B*46:01; [15]): ≥ 20 µM
Kd (HLA-A*26:01 [2]; [15]): ≥ 20 µM
Kd (HLA-B*27:03; [15]): ≥ 20 µM
Kd (HLA-B*39:01; [15]): ≥ 20 µM
Kd (HLA-B*18:01; [15]): ≥ 20 µM
Kd (HLA-B*15:01 [3]; [15]): ≥ 20 µM
Kd (HLA-A*69:01 [4]; [15]): ≥ 20 µM
Kd (HLA-B*57:01; [15]): ≥ 20 µM
Kd (HLA-A*02:01 [5]; [15]): ≥ 20 µM
Kd (HLA-B*51:01; [15]): ≥ 20 µM

DRLASTVIY
Kd (HLA-A*02:19; [15]): ≥ 20 µM
Kd (HLA-A*29:02; [15]): ≥ 20 µM
Kd (HLA-A*02:11; [15]): ≥ 20 µM
Kd (HLA-A*23:01; [15]): ≥ 20 µM
Kd (HLA-B*27:05; [15]): 8.77 µM
Kd (HLA-A*24:03; [15]): ≥ 20 µM
Kd (HLA-A*03:01 [1]; [15]): ≥ 20 µM
Kd (HLA-A*02:03; [15]): ≥ 20 µM
Kd (HLA-A*02:12; [15]): ≥ 20 µM
Kd (HLA-A*02:16; [15]): ≥ 20 µM
Kd (HLA-B*15:17; [15]): ≥ 20 µM
Kd (HLA-B*46:01; [15]): ≥ 20 µM
Kd (HLA-A*26:01 [2]; [15]): ≥ 20 µM
Kd (HLA-B*27:03; [15]): ≥ 20 µM
Kd (HLA-B*39:01; [15]): ≥ 20 µM
Kd (HLA-B*18:01; [15]): ≥ 20 µM
Kd (HLA-B*15:01 [3]; [15]): ≥ 20 µM
Kd (HLA-A*69:01 [4]; [15]): ≥ 20 µM
Kd (HLA-B*57:01; [15]): ≥ 20 µM
Kd (HLA-A*02:01 [5]; [15]): ≥ 20 µM
Kd (HLA-B*51:01; [15]): ≥ 20 µM
IC50 (HLA-A*11:01 [6]): ≥ 120 µM
IC50 (HLA-A*03:01 [7]): ≥ 257 µM

GIVSSMHYK
Kd (HLA-A*68:02; [15]): ≥ 20 µM
Kd (HLA-A*02:19; [15]): ≥ 20 µM
Kd (HLA-A*29:02; [15]): ≥ 20 µM
Kd (HLA-A*02:11; [15]): ≥ 20 µM
Kd (HLA-A*23:01; [15]): ≥ 20 µM
Kd (HLA-A*24:03; [15]): ≥ 20 µM
Kd (HLA-A*03:01 [1]; source organism: Sudan ebolavirus - Maleo (1979)): 1.38 µM
Kd (HLA-A*02:03; [15]): ≥ 20 µM
Kd (HLA-A*02:12; [15]): ≥ 20 µM
Kd (HLA-A*02:16; [15]): ≥ 20 µM
Kd (HLA-B*15:17; [15]): ≥ 20 µM
Kd (HLA-B*46:01; [15]): ≥ 20 µM
Kd (HLA-A*26:01 [2]; [15]): ≥ 20 µM
Kd (HLA-B*27:03; [15]): ≥ 20 µM
Kd (HLA-B*39:01; [15]): ≥ 20 µM
Kd (HLA-B*18:01; [15]): ≥ 20 µM
Kd (HLA-B*15:01 [3]; [15]): ≥ 20 µM
Kd (HLA-A*69:01 [4]; [15]): ≥ 20 µM
Kd (HLA-B*57:01; [15]): ≥ 20 µM
Kd (HLA-A*02:01 [5]; [15]): ≥ 20 µM
Kd (HLA-B*51:01; [15]): ≥ 20 µM
Kd (HLA-A*31:01 [8]): ≥ 20 µM

LVRDITESL
Kd (HLA-A*29:02; [16]): ≥ 20 µM
Kd (HLA-B*07:02; [17]): 0.0392 µM
Kd (HLA-A*23:01; [16]): ≥ 20 µM
Kd (HLA-A*24:03; [16]): ≥ 20 µM
Kd (HLA-A*03:01 [1]; [16]): ≥ 20 µM
Kd (HLA-A*02:03; [16]): ≥ 20 µM
Kd (HLA-A*02:12; [16]): ≥ 20 µM
Kd (HLA-A*02:16; [16]): ≥ 20 µM
Kd (HLA-A*26:01 [2]; [17]): ≥ 20 µM
Kd (HLA-B*27:03; [17]): ≥ 20 µM
Kd (HLA-B*39:01; [17]): ≥ 20 µM
Kd (HLA-B*18:01; [17]): ≥ 20 µM
Kd (HLA-A*69:01 [4]; [17]): ≥ 20 µM
Kd (HLA-B*57:01; [17]): ≥ 20 µM
Kd (HLA-B*51:01; [17]): ≥ 20 µM

LVTARQKLK
Kd (HLA-A*68:02; [18]): ≥ 20 µM
Kd (HLA-A*02:19; [18]): ≥ 20 µM
Kd (HLA-A*29:02; [18]): ≥ 20 µM
Kd (HLA-A*02:11; [18]): ≥ 20 µM
Kd (HLA-A*23:01; [18]): ≥ 20 µM
Kd (HLA-A*24:03; [18]): ≥ 20 µM
Kd (HLA-A*03:01 [1]; [19]): 9 µM
Kd (HLA-A*02:03; [18]): ≥ 20 µM
Kd (HLA-A*02:12; [18]): ≥ 20 µM
Kd (HLA-A*02:16; [18]): ≥ 20 µM
Kd (HLA-B*15:17; [20]): ≥ 20 µM
Kd (HLA-B*46:01; [20]): ≥ 20 µM
Kd (HLA-A*26:01 [2]; [20]): ≥ 20 µM
Kd (HLA-B*27:03; [20]): ≥ 20 µM
Kd (HLA-B*39:01; [20]): ≥ 20 µM
Kd (HLA-B*18:01; [20]): ≥ 20 µM
Kd (HLA-B*15:01 [3]; [20]): ≥ 20 µM
Kd (HLA-A*69:01 [4]; [20]): ≥ 20 µM
Kd (HLA-B*57:01; [20]): ≥ 20 µM
Kd (HLA-A*02:01 [5]; [20]): ≥ 20 µM
Kd (HLA-B*51:01; [20]): ≥ 20 µM

RLWNGRRCR
Kd (HLA-A*30:01): 1.75 µM
Kd (HLA-A*11:01 [9]): 11.4 µM
Kd (HLA-A*01:01): ≥ 20 µM
Kd (HLA-B*44:02): ≥ 20 µM
Kd (HLA-A*26:01 [10]): ≥ 20 µM
Kd (HLA-B*07:02; [21]): ≥ 20 µM
Kd (HLA-B*15:01 [11]): ≥ 20 µM
Kd (HLA-B*27:05; [21]): 2.04 µM
Kd (HLA-A*69:01 [12]): ≥ 20 µM
Kd (HLA-A*24:03; [21]): ≥ 20 µM
Kd (HLA-A*03:01 [1]; [21]): 0.634 µM
Kd (HLA-B*40:01; [21]): ≥ 20 µM
Kd (HLA-B*58:01; [21]): ≥ 20 µM
Kd (HLA-A*02:01 [13]): ≥ 20 µM
Kd (HLA-B*08:01): ≥ 20 µM
Kd (HLA-A*31:01 [14]): 0.0615 µM

VSANVKGNW
Kd (HLA-A*68:02; [19]): ≥ 20 µM
Kd (HLA-A*02:19; [19]): ≥ 20 µM
Kd (HLA-A*29:02; [19]): ≥ 20 µM
Kd (HLA-A*02:11; [19]): ≥ 20 µM
Kd (HLA-A*24:03; [19]): ≥ 20 µM
Kd (HLA-A*03:01 [1]; [19]): ≥ 20 µM
Kd (HLA-A*02:03; [19]): ≥ 20 µM
Kd (HLA-B*58:01; [19]): 0.0023 µM
Kd (HLA-A*02:12; [19]): ≥ 20 µM
Kd (HLA-A*02:16; [19]): ≥ 20 µM
Kd (HLA-B*46:01; [19]): ≥ 20 µM
Kd (HLA-A*26:01 [2]; [19]): ≥ 20 µM
Kd (HLA-B*27:03; [19]): ≥ 20 µM
Kd (HLA-B*39:01; [19]): ≥ 20 µM
Kd (HLA-B*18:01; [19]): ≥ 20 µM
Kd (HLA-B*15:01 [3]; [19]): ≥ 20 µM
Kd (HLA-A*69:01 [4]; [19]): ≥ 20 µM
Kd (HLA-A*02:01 [5]; [19]): ≥ 20 µM
